Here are results for 9 molecules from publication PMC4345311.

One may read the Kd as a measure of binding affinity in units of concentration. Higher therefore signals lower affinity.

The data set deals with HIV-1 protease (PR), wild-type (HIV-1, UniProt P04585 489-587). Description: filter binding.

B1: PR10.1-8E-D3CR (structured_RNA)
RNA: GGGUUACCUAGGUGUAGAUGCUCUUAAGUGUAACUUCUCAUAACAUCCGGAGGCUUUUACUUCCGGGG
As to B1, the binding result is recorded as “no binding”.

B2: PR10.1-8E-M1 (structured_RNA)
RNA: GGGUUACCUAGGUGUAGAUGCUCUUAAGUGUAACUUCUCAUAACAUCCGGAGGCACGUACUUCCGGGGACCUAAGUGACGUCUGAACUGCUUCGAA
As for B2, the binding result is “no binding”.

B3: PR10.1-8E-M5 (structured_RNA)
RNA: GGGUUACCUAGGUGUAGUACGACUUAAGUGUAACUUCUCAUAACAUCCGGAGGCUUUUACUUCCGGGGACCUAAGUGACGUCUGAACUGCUUCGAA
Consider B3, for which the binding result is on record as “no binding”.

B4: PR10.1-8E-M4 (structured_RNA)
RNA: GGGUUACCUAGGUGUAGAUGCUACGUAGUGUAACUUCUCAUAACAUCCGGAGGCUUUUACUUCCGGGGACCUAAGUGACGUCUGAACUGCUUCGAA
On to B4, for which the binding result was “no binding”.

B5: PR10.1-8E-M6 (structured_RNA)
RNA: GGGUUACCUAGGUGUAGAUGCUCUUAUCACAAACUUCUCAUAACAUCCGGAGGCUUUUACUUCCGGGGACCUAAGUGACGUCUGAACUGCUUCGAA
Consider B5, for which the binding result is reported as “no binding”.

B6: PR10.1-8E-M2 (structured_RNA)
RNA: GGGUUACCUAGGUGUAGAUGCUCUUAAGUGUAACUUCUCAUAACAUCCGGAGGCUUUUAGAAGGCCCGACCUAAGUGACGUCUGAACUGCUUCGAA
Consider B6, for which the binding result is recorded as “no binding”.

B7: PR10.1-8E-M9 (structured_RNA)
RNA: GGGUUACCUAGGUGUAGAUGCUCUUAAGUGUAACUUCUCAUAACAUCCGGAGGCUUUUACUUCCGGGGUGGAUCCAUUGGUCUGAACUGCUUCGAA
As to B7, the binding result was “no binding”.

B8: PR10.1-8E-M8 (structured_RNA)
RNA: GGGUUACCUAGGUGUAGUGUGACUUAUCGUAAACUUCUCAUAACAUCCGGAGGCUUUUACUUCCGGGGACCUAAGUGACGUCUGAACUGCUUCGAA
For B8, the affinity, expressed as Kd, was 386 ± 63 nM.

B9: PR10.1-8E-M10 (structured_RNA)
RNA: GGCAGUGGAUCCAGUAGAUGCUCUUAAGUGUAACUUCUCAUAACAUCCGGAGGCUUUUACUUCCGGGGACCUAAGUGACGUCUGAACUGCUUCGAA
As to B9, the binding result is reported as “no binding”.
